The values below come from US11833164B2, “Methods of treating Fabry disease in patients having a mutation in the GLA gene” (Amicus Therapeutics, Inc., priority 2019, dated 2023).

The assay concerns mutant form of α-Gal A expressed in HEK-293 cells. Briefly: HEK assay (GLP HEK / Migalastat Amenability Assay): α-Gal A activity in lysates of transiently transfected HEK-293 cells incubated with or without 10 μM migalastat. As to conditions: for Absolute increase (% WT): 10 μM migalastat versus baseline; for Relative increase: 10 μM migalastat α-Gal A activity relative to baseline; for 10 μM migalastat α-Gal A activity (% WT): 5 days; for 10 μM migalastat α-Gal A activity (% WT) / Baseline α-Gal A activity (% WT): percentage of baseline wild-type α-Gal A activity; for 10 μM migalastat α-Gal A activity (% WT) / Baseline α-Gal A activity (% WT) / Baseline α-Gal A activity / 10 μM migalastat α-Gal A activity: mean ± SEM; for Baseline α-Gal A activity (% WT): absence of migalastat; for Baseline α-Gal A activity / 10 μM migalastat α-Gal A activity: lysates of HEK-293 cells transfected with the mutant form; for Baseline α-Gal A activity: incubated 5 days in the absence of migalastat; for 10 μM migalastat α-Gal A activity: incubated 5 days with 10 μM migalastat. Type of assay: cell-based, human. In short, it runs like this:
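HEK-293 cells transiently transfected with mutant α-Gal A and incubated with or without 10 μM migalastat; lysate activity given as nmol free 4-MU released per mg protein per hour. Values are mean±SEM.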

B1: D165A (protein)
chain: MQLRNPELHLGCALALRFLALVSWDIPGARALDNGLARTPTMGWLHWERFMCNLDCQEEPDSCISEKLFMEMAELMVSEGWKDAGYEYLCIDDCWMAPQRDSEGRLQADPQRFPHGIRQLANYVHSKGLKLGIYADVGNKTCAGFPGSFGYYDIDAQTFADWGVALLKFDGCYCDSLENLADGYKHMSLALNRTGRSIVYSCEWPLYMWPFQKPNYTEIRQYCNHWRNFADIDDSWKSIKSILDWTSFNQERIVDVAGPGGWNDPDMLVIGNFGLSWNQQVTQMALWAIMAAPLFMSNDLRHISPQAKALLQDKDVIAINQDPLGKQGYQLRQGDNFEVWERPLSGLAWAVAMINRQEIGGPRSYTIAVASLGKGVACNPACFITQLLPVKRKLGFYEWTSRLRSHINPTGTVLLQLENTMQMSLKDLL
Take B1: the “Absolute increase (% WT)” value came out at 4.4 % WT, the Relative increase amounted to 5.2, the “10 μM migalastat α-Gal A activity (% WT)” value is reported as 5.4 ± 0.3 % WT and the “Baseline α-Gal A activity (% WT)” value was determined as 1 ± 0.1 % WT. Moreover, the “Baseline α-Gal A activity” value was determined as 271 ± 30 nmol/mg/h and the “10 μM migalastat α-Gal A activity” value was determined as 1397 ± 86 nmol/mg/h.

B2: F169V (protein)
chain: MQLRNPELHLGCALALRFLALVSWDIPGARALDNGLARTPTMGWLHWERFMCNLDCQEEPDSCISEKLFMEMAELMVSEGWKDAGYEYLCIDDCWMAPQRDSEGRLQADPQRFPHGIRQLANYVHSKGLKLGIYADVGNKTCAGFPGSFGYYDIDAQTFADWGVDLLKVDGCYCDSLENLADGYKHMSLALNRTGRSIVYSCEWPLYMWPFQKPNYTEIRQYCNHWRNFADIDDSWKSIKSILDWTSFNQERIVDVAGPGGWNDPDMLVIGNFGLSWNQQVTQMALWAIMAAPLFMSNDLRHISPQAKALLQDKDVIAINQDPLGKQGYQLRQGDNFEVWERPLSGLAWAVAMINRQEIGGPRSYTIAVASLGKGVACNPACFITQLLPVKRKLGFYEWTSRLRSHINPTGTVLLQLENTMQMSLKDLL
For the molecule B2, the “Absolute increase (% WT)” value came out at 42.8 % WT, the Relative increase was 5.6, the “10 μM migalastat α-Gal A activity (% WT)” value came out at 53 ± 2.1 % WT and the “Baseline α-Gal A activity (% WT)” value was found to be 10.2 ± 0.9 % WT. Besides, the “Baseline α-Gal A activity” value is 2870 ± 239 nmol/mg/h and the “10 μM migalastat α-Gal A activity” value amounted to 16145 ± 1680 nmol/mg/h.

B3: L166M (protein)
chain: MQLRNPELHLGCALALRFLALVSWDIPGARALDNGLARTPTMGWLHWERFMCNLDCQEEPDSCISEKLFMEMAELMVSEGWKDAGYEYLCIDDCWMAPQRDSEGRLQADPQRFPHGIRQLANYVHSKGLKLGIYADVGNKTCAGFPGSFGYYDIDAQTFADWGVDMLKFDGCYCDSLENLADGYKHMSLALNRTGRSIVYSCEWPLYMWPFQKPNYTEIRQYCNHWRNFADIDDSWKSIKSILDWTSFNQERIVDVAGPGGWNDPDMLVIGNFGLSWNQQVTQMALWAIMAAPLFMSNDLRHISPQAKALLQDKDVIAINQDPLGKQGYQLRQGDNFEVWERPLSGLAWAVAMINRQEIGGPRSYTIAVASLGKGVACNPACFITQLLPVKRKLGFYEWTSRLRSHINPTGTVLLQLENTMQMSLKDLL
Turning to B3, the “Absolute increase (% WT)” value was 48.8 % WT, the Relative increase worked out at 1.8, the “10 μM migalastat α-Gal A activity (% WT)” value was found to be 104 ± 7.3 % WT and the “Baseline α-Gal A activity (% WT)” value is on record as 55.2 ± 4.5 % WT. Besides, the “Baseline α-Gal A activity” value stood at 15603 ± 1630 nmol/mg/h and the “10 μM migalastat α-Gal A activity” value amounted to 27922 ± 1578 nmol/mg/h.

B4: F169L (protein)
chain: MQLRNPELHLGCALALRFLALVSWDIPGARALDNGLARTPTMGWLHWERFMCNLDCQEEPDSCISEKLFMEMAELMVSEGWKDAGYEYLCIDDCWMAPQRDSEGRLQADPQRFPHGIRQLANYVHSKGLKLGIYADVGNKTCAGFPGSFGYYDIDAQTFADWGVDLLKLDGCYCDSLENLADGYKHMSLALNRTGRSIVYSCEWPLYMWPFQKPNYTEIRQYCNHWRNFADIDDSWKSIKSILDWTSFNQERIVDVAGPGGWNDPDMLVIGNFGLSWNQQVTQMALWAIMAAPLFMSNDLRHISPQAKALLQDKDVIAINQDPLGKQGYQLRQGDNFEVWERPLSGLAWAVAMINRQEIGGPRSYTIAVASLGKGVACNPACFITQLLPVKRKLGFYEWTSRLRSHINPTGTVLLQLENTMQMSLKDLL
As for B4, the “Absolute increase (% WT)” value is 34.5 % WT, the Relative increase is 1.7, the “10 μM migalastat α-Gal A activity (% WT)” value came to 82.3 ± 3.2 % WT and the “Baseline α-Gal A activity (% WT)” value is 47.8 ± 2.9 % WT. The “Baseline α-Gal A activity” value turned out to be 15588 ± 1463 nmol/mg/h and the “10 μM migalastat α-Gal A activity” value came to 26527 ± 1806 nmol/mg/h.

B5: F169C (protein)
chain: MQLRNPELHLGCALALRFLALVSWDIPGARALDNGLARTPTMGWLHWERFMCNLDCQEEPDSCISEKLFMEMAELMVSEGWKDAGYEYLCIDDCWMAPQRDSEGRLQADPQRFPHGIRQLANYVHSKGLKLGIYADVGNKTCAGFPGSFGYYDIDAQTFADWGVDLLKCDGCYCDSLENLADGYKHMSLALNRTGRSIVYSCEWPLYMWPFQKPNYTEIRQYCNHWRNFADIDDSWKSIKSILDWTSFNQERIVDVAGPGGWNDPDMLVIGNFGLSWNQQVTQMALWAIMAAPLFMSNDLRHISPQAKALLQDKDVIAINQDPLGKQGYQLRQGDNFEVWERPLSGLAWAVAMINRQEIGGPRSYTIAVASLGKGVACNPACFITQLLPVKRKLGFYEWTSRLRSHINPTGTVLLQLENTMQMSLKDLL
As to B5, the “Absolute increase (% WT)” value stood at 26.9 % WT, the Relative increase is 2.4, the “10 μM migalastat α-Gal A activity (% WT)” value is 44.9 ± 2.3 % WT and the “Baseline α-Gal A activity (% WT)” value is 18.1 ± 2 % WT. The “Baseline α-Gal A activity” value was found to be 6861 ± 977 nmol/mg/h and the “10 μM migalastat α-Gal A activity” value was 16396 ± 1516 nmol/mg/h.

B6: L167I (protein)
chain: MQLRNPELHLGCALALRFLALVSWDIPGARALDNGLARTPTMGWLHWERFMCNLDCQEEPDSCISEKLFMEMAELMVSEGWKDAGYEYLCIDDCWMAPQRDSEGRLQADPQRFPHGIRQLANYVHSKGLKLGIYADVGNKTCAGFPGSFGYYDIDAQTFADWGVDLIKFDGCYCDSLENLADGYKHMSLALNRTGRSIVYSCEWPLYMWPFQKPNYTEIRQYCNHWRNFADIDDSWKSIKSILDWTSFNQERIVDVAGPGGWNDPDMLVIGNFGLSWNQQVTQMALWAIMAAPLFMSNDLRHISPQAKALLQDKDVIAINQDPLGKQGYQLRQGDNFEVWERPLSGLAWAVAMINRQEIGGPRSYTIAVASLGKGVACNPACFITQLLPVKRKLGFYEWTSRLRSHINPTGTVLLQLENTMQMSLKDLL
In the case of B6, the “Absolute increase (% WT)” value is reported as 26.1 % WT, the Relative increase is listed as 1.6, the “10 μM migalastat α-Gal A activity (% WT)” value is listed as 72.9 ± 2.7 % WT and the “Baseline α-Gal A activity (% WT)” value is given as 46.8 ± 2.2 % WT. In addition, the “Baseline α-Gal A activity” value was determined as 14763 ± 942 nmol/mg/h and the “10 μM migalastat α-Gal A activity” value is 22948 ± 1321 nmol/mg/h.

B7: D165E (protein)
chain: MQLRNPELHLGCALALRFLALVSWDIPGARALDNGLARTPTMGWLHWERFMCNLDCQEEPDSCISEKLFMEMAELMVSEGWKDAGYEYLCIDDCWMAPQRDSEGRLQADPQRFPHGIRQLANYVHSKGLKLGIYADVGNKTCAGFPGSFGYYDIDAQTFADWGVELLKFDGCYCDSLENLADGYKHMSLALNRTGRSIVYSCEWPLYMWPFQKPNYTEIRQYCNHWRNFADIDDSWKSIKSILDWTSFNQERIVDVAGPGGWNDPDMLVIGNFGLSWNQQVTQMALWAIMAAPLFMSNDLRHISPQAKALLQDKDVIAINQDPLGKQGYQLRQGDNFEVWERPLSGLAWAVAMINRQEIGGPRSYTIAVASLGKGVACNPACFITQLLPVKRKLGFYEWTSRLRSHINPTGTVLLQLENTMQMSLKDLL
With B7, the “Absolute increase (% WT)” value is 18.4 % WT, the Relative increase was found to be 4.4, the “10 μM migalastat α-Gal A activity (% WT)” value was 23.8 ± 1.6 % WT and the “Baseline α-Gal A activity (% WT)” value turned out to be 5.4 ± 0.2 % WT. Further, the “Baseline α-Gal A activity” value turned out to be 1442 ± 43 nmol/mg/h and the “10 μM migalastat α-Gal A activity” value is 6279 ± 288 nmol/mg/h.

B8: L166Q (protein)
chain: MQLRNPELHLGCALALRFLALVSWDIPGARALDNGLARTPTMGWLHWERFMCNLDCQEEPDSCISEKLFMEMAELMVSEGWKDAGYEYLCIDDCWMAPQRDSEGRLQADPQRFPHGIRQLANYVHSKGLKLGIYADVGNKTCAGFPGSFGYYDIDAQTFADWGVDQLKFDGCYCDSLENLADGYKHMSLALNRTGRSIVYSCEWPLYMWPFQKPNYTEIRQYCNHWRNFADIDDSWKSIKSILDWTSFNQERIVDVAGPGGWNDPDMLVIGNFGLSWNQQVTQMALWAIMAAPLFMSNDLRHISPQAKALLQDKDVIAINQDPLGKQGYQLRQGDNFEVWERPLSGLAWAVAMINRQEIGGPRSYTIAVASLGKGVACNPACFITQLLPVKRKLGFYEWTSRLRSHINPTGTVLLQLENTMQMSLKDLL
As to B8, the “Absolute increase (% WT)” value is 29.2 % WT, the Relative increase is 2.6, the “10 μM migalastat α-Gal A activity (% WT)” value is given as 47.6 ± 1.9 % WT and the “Baseline α-Gal A activity (% WT)” value was determined as 18.4 ± 1.2 % WT. The “Baseline α-Gal A activity” value was 5656 ± 325 nmol/mg/h and the “10 μM migalastat α-Gal A activity” value amounted to 14720 ± 616 nmol/mg/h.
